Assay [1] has as its target T1, full-length human Siglec15 with C-terminal flag and Myc tags on HEK293 cells (human, UniProt Q6ZMC9 20-328).
T1 construct: whole, on cells; also called Siglec15/HEK293; HEK293-Siglec 15; not shown: C-terminal flag and Myc tags from pCMV6-Entry vector
T1 sequence (looked up): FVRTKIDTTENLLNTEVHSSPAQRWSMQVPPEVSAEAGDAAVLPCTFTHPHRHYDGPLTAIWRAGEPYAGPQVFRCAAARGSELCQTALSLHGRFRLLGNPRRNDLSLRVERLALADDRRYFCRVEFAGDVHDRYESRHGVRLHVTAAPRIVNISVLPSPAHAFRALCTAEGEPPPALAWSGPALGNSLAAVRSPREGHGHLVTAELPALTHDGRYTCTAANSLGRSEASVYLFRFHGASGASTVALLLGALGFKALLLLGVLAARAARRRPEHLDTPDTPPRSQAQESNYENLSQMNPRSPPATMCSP
The assay is described as follows: FACS on Siglec15/HEK293 cells, scFv, anti-His detection. Here is the method:
[…] Cells were spun down at 1200 rpm for 5 minutes at 4° C. to remove primary antibodies. Cells were then washed once with 200 uL of full medium per well. Samples were detected with premixed anti-His Biotin Streptavidin Alexa fluor 647 by adding 100 uL of diluted secondary antibody and incubated at 4° C. for 30 minutes in the dark. Samples were spun down at 1200 rpm for 5 minutes at 4° C. and washed twice with 200 uL of 1×PBS per well. Samples were then reconstituted in 200 uL of 1×PBS and read on Attune NxT cytometer. Analysis was performed using Attune NxT software plotting the overlaying the histogram of anti-Siglec15 scFvs binding onto both negative and target cell lines.

Assay [2] addresses T2, human Siglec15-Fc fusion protein (human, UniProt Q6ZMC9 20-263).
T2 construct: Bought protein (Acro #SG5-H5253 is named for the selection); also called recombinant Siglec 15-Fc fusion protein (Acro #SG5-H5253); human Siglec15-Fc protein; not shown: Fc part of the bought fusion protein
T2 sequence (looked up): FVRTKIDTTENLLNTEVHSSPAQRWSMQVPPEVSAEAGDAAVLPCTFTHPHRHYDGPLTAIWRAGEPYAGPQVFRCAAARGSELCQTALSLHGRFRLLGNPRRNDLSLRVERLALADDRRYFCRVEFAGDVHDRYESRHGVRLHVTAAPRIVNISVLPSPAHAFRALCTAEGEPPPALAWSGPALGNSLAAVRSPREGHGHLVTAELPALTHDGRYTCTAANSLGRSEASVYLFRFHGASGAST
In words: SPR Biacore T200; Siglec15-Fc captured on Protein A chip, scFv as analyte. As to the method: Kinetic analysis of anti-Siglec15 scFvs were assessed by SPR technology with Biacore T200. The assay was run with Biacore T200 control software version 2.0. Protein A sensor chip was used to capture Fc fusion protein in the assay. For each cycle, 1 ug/mL of human Siglec15-Fc protein was captured for 60 seconds at flow rate of 10 ul/min on flow cell 2 in 1× HBSP buffer on Protein A sensor chip. 2-fold serial diluted HIS tag purified anti-Siglec15 scFv was injected onto both reference flow cell 1 and Siglec 15-Fc captured flow cell 2 for 150 seconds at flow rate of 30 ul/min followed by wash for 300 seconds. The flow cells were then regenerated with Glycine pH 2 buffer (GE) for 30 seconds at flow rate of 30 ul/mins. 8 concentration points from 300-0 nM was assayed per anti-Siglec15 scFv in a 96 well plate. The kinetics of scFvs binding to Siglec 15 protein was analyzed with Biacore T200 evaluation software version 3.0. The specific binding response unit was derived from subtraction of binding to reference flow cell 1 from Siglec15 captured flow cell 2.

The target of assay [3] is T2, human Siglec15-Fc fusion protein. The assay is described as follows: ELISA; Siglec15-Fc captured by anti-hFc, scFv titrated, anti-Flag HRP. As to the method: An ELISA assay was developed to determine the EC50 of anti-Siglec15 antibodies. Briefly, a 384 well plate was immobilized with anti-human Fc antibody at final concentration of 2 ug/mL in 1×PBS in total volume of 25 uL per well. The plate was incubated overnight at 4° C. followed by blocking with 80 uL of superblock per well for 1 hour. Human Siglec 15-Fc was captured through immobilized anti-hFc antibody. Purified anti-Siglec 15 scFvs were 2-fold serial titrated from 200 nM. 25 uL was added to human Siglec15 immobilized wells and incubated for 1 hour with shaking. The Siglec15 binding was detected by adding 25 uL of anti-Flag HRP diluted at 1:5000 in 1×PBST. In between each step, the plate was washed 3 times with 1×PBST in a plate washer. The plate was then developed with 20 uL of TMB substrate for 5 mins and stopped by adding 20 uL of 2 N sulfuric acid. The plate was read at OD450 nm Biotek plate reader and then plotted in Prism 8.1 software.

B1: 2020EP083-G11 scFv (scFv, V domains shown)
VH: EVQLVESGGGLVEPGGSLRLSCAASGFTFSSYSMSWVRQAPGKGLEWVGRIKSETDGGTTDYAGPAKGKFIISRNDAENTVSLQMNSLKFEDTAVYHCTTDSSSSWFSYSFDNWGQETLVTVSS
VL: EIVMTQSPATLSVSPGERATLSCRASQNVNSNLAWYQQKTGQAPRLLIFGASTRATGIPARFSGSGSGTEFTLTIGSLQSEDFAVYYCQQYNNWPPTFGGWTKVEIK
notes: Tested as a single-chain scFv made in E. coli with a C-terminal flag and 6x His tag
In assay [1], B1 registered an EC50 of 0.87 nM. In assay [2], this molecule registered a Kd of 1.12 nM, a koff of 0.000356 s⁻¹ and a kon of 318000 M⁻¹ s⁻¹. In assay [3], this molecule yielded an EC50 of 1.29 nM.

B2: 2020EP085-G5 scFv (scFv, V domains shown)
VH: QVQLVQSGAEVKKPGASVKVSCKASGYTFTDYYMHWVRQAPGQGLEWMGWINPNSGGTNYAQKFQGRVTMTRDTSITTAYMELSWLRSDDTAVYYCAREVGTTTTGVDYWGQGTLVTVSS
VL: VIWMTQSPSSLSASVGDRVTFTCQASQDINIYLTWYQIKPGKAPKVLIYDASTLESGVPSRFSGSGFGTHFVFTISSLQPEDFATYYCQHYDSLPLTFGGGTKVEIK
notes: as for B1
In assay [1], B2 displayed an EC50 of 1 nM. Besides, in assay [2], the Kd came out at 10.9 nM, the koff was 0.00144 s⁻¹ and the kon turned out to be 132000 M⁻¹ s⁻¹. Besides, in assay [3], the midpoint of the response, the EC50, lay at 3.3 nM.

B3: 2020EP083-H01 scFv (scFv, V domains shown)
VH: QLQLQESGPGLVKPAETLSLTCTVSGGSVSSGDNLWDWIRQPPGKGLEWIGSIRDSGNPAYNPSLRSRVTISADTSTDQFSLKLTSVTAADTAVYYCARHSDGGYGKIYGMDVWGQGTTVTVSS
VL: DIQLTQSPSFLSASVGDRVTITCRASQAVSTYLVWYLQKPGQAPRLLIYAASTLQSGVPSRFSGSGSGTDFTLTISRLQPEDAGTYFCQQLNSNALVFGGGTKVDIK
notes: as for B1
B3 came in with an EC50 in assay [1] of 0.23 nM. In assay [2], this molecule registered a Kd of 10.4 nM, an off-rate constant (koff) of 0.00149 s⁻¹ and a kon of 143000 M⁻¹ s⁻¹. This molecule yielded an EC50 in assay [3] of 2.54 nM.

B4: 2020EP032-A08 scFv (scFv, V domains shown)
VH: QVQLQQWGAGLLKPSETLSLTCAVYGGSFSGYYWSWIRQPPGKGLEWIGEINHSGSTNYNPSLKSRVTISVDTSKNQFSLKLSSVTAADTAVYYCARGVYYYDSSGPRDYFDYWGQGTLVTVSS
VL: DIVMTQSPSSLSASVGDRVTITCQASQDISNYLNWYQQKPGKAPKLLIYDASNLKTGVPSRFSGSGSGTDFTFTITSLQPEDIGTYFCQQYGNLPYTFGQGTKLEIK
notes: as for B1
For the molecule B4, in assay [1], the midpoint of the response, the EC50, lay at 1.6 nM. For the same molecule, in assay [2], the dissociation constant Kd was 18.1 nM, the off-rate constant (koff) was 0.000842 s⁻¹ and the kon was determined as 46400 M⁻¹ s⁻¹. The molecule further gave an EC50 in assay [3] of 5.87 nM.

B5: 2020EP032-A12 scFv (scFv, V domains shown)
VH: QMQLVQSGGGVVQPGRSLRLSCAASGFTFSSYGMHWVRQAPGKGLEWVAVISDDGSNKYYADSVKGRFTISRDNSKNTLYLQMNSLRAEDTAVYYCAKKDVATILFDNWGQGTLVTVSS
VL: VIWMTQSPSTLSASVGDRVTITCRASQSITRWLAWYQQKPGKAPKLLIYKTSDLDGGVPSRFSGSESGAEFTLTISSLQPDDVATYFCQHYNTRSWTFGQGTKVELK
notes: as for B1
With B5, the EC50 in assay [1] was 0.86 nM. In assay [2], this molecule returned an equilibrium dissociation constant (Kd) of 2.26 nM, a koff of 0.000294 s⁻¹ and a kon of 130000 M⁻¹ s⁻¹. This molecule also yielded an EC50 in assay [3] of 0.544 nM.

B6: 2019EP47-C12 scFv (scFv, V domains shown)
VH: EVQLVESGGGLEKPGRSLRLSCTASGFTFGDYAMSWFRQAPGKGLEWVGFITTKPYGGTTEYAASVKGRFTISRDDSKSIAYLQMNSLKTEDTAEYYCTKDSEAYYGSGSYMVGYWGQGTLVTVSS
VL: QSVLTQPPSVSLAPGKTATITCGGDNIENKDVHWYQQKPGQAPVLVIRFAADRPSGIPERFSGSSSGNTATLTISRVEAGDEADYYCQVWQSTRDHPVVVFGGGTKLTVL
notes: as for B1
As for B6, the EC50 in assay [1] was determined as 13.1 nM; in assay [3], 9.97 nM.

B7: 2020EP032-C09 scFv (scFv, V domains shown)
VH: QVQLVESGGGLVKPGGSLRLSCAASGFSFNNAWMSWVRQAPGKGLEWVGRIKSKTDDATTEYAAPVEGRFTISRDDSKNMLYLQMDSLKTEDTAVYYCTTDLRWEELPMYWGQGTLVTVSS
VL: VIWMTQSPSSLSASVGDRVTITCRASQGIRNDLGWYQQKPGKAPKVLIYAASSLQSGVPSRFSGSGSGTDFTLTISSLQPEDFATYYCLQDYNYPQTFGQGTKVGIKR
notes: as for B1
In turn, B7 gave an EC50 in assay [1] of 0.65 nM. Moreover, in assay [2], the equilibrium dissociation constant (Kd) worked out at 25.1 nM, the off-rate (koff) stood at 0.00169 s⁻¹ and the association rate constant (kon) turned out to be 67600 M⁻¹ s⁻¹. In assay [3], this molecule yielded an EC50 of 6.07 nM.

B8: 2019EP47-A10 scFv (scFv, V domains shown)
VH: QMQLVQSGGGVVQPGRSLRLSCAASGFTFSSYGMHWVRQAPGKGLEWVAVISYDGSNKYYADSVKDRFTISRDNSKNTLYLQMNSLRAEDTAVYYCAKDIVGDSGSYPIYYYYGMDVWGQGTTVTVSS
VL: SQSALTQPHSVSESPGKTVTISCTRSSGSIASNYVQWYQQRPGSAPSTVIYEDNQRPSGVPDRFSGSVDISSNSASLTISGLQTEDEADYYCQSYDNDNMVFGGGTKLTVL
notes: as for B1
With B8, the EC50 in assay [1] is 112 nM. In assay [2], the Kd came out at 3.32 nM, the koff came out at 6.02e-05 s⁻¹ and the kon stood at 18200 M⁻¹ s⁻¹. In assay [3], this molecule gave a 50% effective concentration (EC50) of 2.5 nM.

B9: 2020EP032-B03 scFv (scFv, V domains shown)
VH: QVQLQQWGAGLLKPSETLSLTCAVYGGSFSGYYWSWIRQPPGKGLEWIGEINHSGSTNYNPSLKSRVTISVDTSKNQFSLKLSSVTAADTAVYYCARGPLRKYYDFWSGSRNYYYYGMDVWGQGTTVTVSS
VL: QPVLTQDPAVSVALGQTVRITCQGDSLRSNYASWYQLKPGQAPVLVIYDKNNRPSGIPDRFSGSNSGNTASLTIAGAQAEDEADYYCTSRDSSGTVFGGGTKLTVL
notes: as for B1
In turn, B9 yielded an EC50 in assay [1] of 1.22 nM. Besides, in assay [2], the Kd turned out to be 2.11 nM, the koff worked out at 0.000282 s⁻¹ and the on-rate constant (kon) was determined as 134000 M⁻¹ s⁻¹. The molecule further came in with an EC50 in assay [3] of 1.78 nM.

B10: 2019EP47-A05 scFv (scFv, V domains shown)
VH: QMQLVQSGAEVKKPGSSVKVSCKASGGTFSSYAISWVRQAPGQGLEWMGRIIPILGIANYAQKFQGRVTITADKSTSTAYMELSSLRSEDTAVYYCAVNTYYYDSSGYYYEYFDYWGQGTLVTVSS
VL: EIVLTQSPSSLSASVGDRVTITCQASQHINNHLNWYQQKPGKGPKLLIYDVSNLEAGVPSRFSASGSGTDFSFTISSLQPEDFATYYCQQYDSLPLTFGQGTKVEVK
notes: as for B1
Molecule B10 returned an EC50 in assay [1] of 88.3 nM. For the same molecule, in assay [2], the Kd came out at 2.79 nM, the off-rate constant (koff) was 7.77e-05 s⁻¹ and the kon came to 27900 M⁻¹ s⁻¹. In assay [3], this molecule had an EC50 of 3.35 nM.

B11: 2019EP47-A02 scFv (scFv, V domains shown)
VH: EVQLVQSGGGVVQPGRSLRLSCAASGFTFSSYAMHWVRQAPGKGLEWVAVISYDGSNKYYADSVKGRFTISRDNSKNTLYLQMNSLRAEDTAVYYCARSRYSSSLRRYYGMDVWGQGTTVTVSS
VL: AIQLTQSPSSLSASVGDRVTITCQATHDIANYLNWYQQKPGKAPKLLIYAASNLETGVPSRFSGSGSGTDFTFAISSLQPEDIAVYYCQQYDNLPLTFGGGTKVEIK
notes: as for B1
On to B11, for which it took 10.6 nM to reach a half-maximal effect in assay [1] (EC50). For the same molecule, in assay [2], the Kd turned out to be 58.8 nM, the off-rate (koff) was determined as 0.00149 s⁻¹ and the kon was determined as 28700 M⁻¹ s⁻¹. In addition, the midpoint of the response in assay [3], the EC50, lay at 21.9 nM.

Source of the values: US20240336683A1 (published 2024).
